The test system of one series is O=C(O)CNCP(=O)(O)O. As to the kind of experiment: purified protein, by the assay type. Particulars: other: 25 mM Hepes, pH 6.8, 10% ethylene glycol.
A further series has as its system N[C@@H](CO)C(=O)O. Kind of series: purified protein, by the assay type. Particulars: other: 25 mM Hepes, pH 6.8, 10% ethylene glycol.
A further series concerns N[C@@H](CC(=O)O)C(=O)O. Kind of series: purified protein, by the assay type. Particulars: other: 25 mM Hepes, pH 6.8, 10% ethylene glycol.
A short description of series [1]: Kinetic parameters by continuous spectrophotometric assay in the presence of 20 mM KCl, protein quantified via UV absorbance. In kind it is biochemical. Particulars: templates GAT 24-5H5 or GAT 25-8H7. As for the experimental part: The further evolved gat genes were first selected for growth in E. coli in minimal M9 medium as described in Example 8, except that 5 mM rather than 1 mM glyphosate was used in the selection. Proteins were purified as described in Example 6 above.
Protein concentrations were determined by UV absorbance at 205 nm. The extinction coefficient was determined by the method described by Scopes (1994; Protein Purification, Principles and Practice, Springer, NewYork) according to the formula E (mg ml^−1 cm^−1)=27+120(A280/A205)=30.5. Prior to quantitation by UV absorbance the protein solution was buffer-exchanged into 50 mM Na2SO4 using a NAP-5 column (Amersham-Pharmacia Biotech).
Error bars represent the standard deviation of multiple assays, where available.

The format of series [2] is physicochemical. Particulars: buffer, pH 7.2. As for the experimental part:
The half lives of several GAT polypeptides were also measured at 37.5° C. according to the following procedure. GAT polypeptides 401 (SEQ ID NO: 6), 17-15H3 (SEQ ID NO: 601), 20-8H12 (SEQ ID NO: 739), 22-13B12 (SEQ ID NO: 781), 22-15B4 (SEQ ID NO: 946) and 22-18C5 (SEQ ID NO: 795) were incubated in a matrix of 25 mM Hepes, pH 7.2, 10 mM KCl and 10% methanol (“HKM”). At various timepoints, aliquots were withdrawn and assayed in triplicate at 22° C. using the continuous spectrophotometric assay described in Example 7 using saturating concentrations of glyphosate (20 mM for 401, 5 mM for the rest) and AcCoA (167 uM). The standard error at each time point averaged about 2.9%. GAT activity was plotted as a function of incubation time and the data was fitted to a curve for exponential decay (y=e^−x), where y is enzyme activity and x is time in hours, from which half life was calculated.

The test system of another series is tobacco plants. As to the kind of experiment: Herbicide spray tests of GAT expressing tobacco plants. In kind it is in vivo, Nicotiana tabacum. As for the experimental part:
Tobacco shoots generated as described in EXAMPLE 9 were excised from the explants and transferred to basal root induction (BRI) medium composed of half-strength Murashige and Skoog (MS) medium, pH 5.7, with 1.5% sucrose, 0.3% Gelrite, 0-200 uM glyphosate and 400 ug/ml Timentin. Rooted plants and axillary shoots were clonally propagated by cutting the stem and transferring it to fresh BRI medium until the desired number of clones was obtained. Rooted plants were carefully removed from the solid medium. Prior to placing the plants into small pots of soil, the roots were washed to remove any remaining Gelrite. A protective plastic cover was kept over the plants for at least one week until the plants were well established.
To determine if GAT expressing tobacco plants could tolerate simulated field rate sprays of glyphosate, clonal lines of several events per GAT variant were tested. A typical test was set up as follows: One clone from each event was sprayed with 1 ml of solution containing the isopropylamine salt of glyphosate (Sigma P5671) and 0.125% Triton X-100, pH 6.8 such that the amount of active ingredient sprayed was equivalent to that present in commercial glyphosate products. For example, to achieve 32 oz/acre (1×) of herbicide containing 40% active ingredient (“ai”), 2.4 ul of 40% ai formulation was diluted into 1 ml water and sprayed on a plant in a 4-inch square pot (16 in^2). A mock application (0×) with surfactant only was also included. In some cases a second spray was applied 1-4 weeks later. Plants were kept in controlled growth rooms at 25° C. and 70% humidity with 16 hr light.
Seed-grown wild type plants were also sprayed. […] All 0× plants were healthy, including the non-GAT control plants. Three weeks later all of the surviving plants were sprayed with an 8× dose.

Results on nine molecules are retold here after patent US7666644B2, “Glyphosate-N-acetyltransferase (GAT) genes” (Verdia, Inc., priority 2004, dated 2010).

Method for N[C@@H](CC(=O)O)C(=O)O: (§1) GAT activity of several GAT polypeptides of the present invention was evaluated with respect to a number of amino acid substrates. The GAT polypeptide, AcCoA and amino substrate were incubated in 25 mM Hepes, pH 6.8, 10% ethylene glycol in the wells of a 96-well polystyrene plate. After 30 minutes, the reactions were stopped by the addition of 30 μl of 10 mM 5,5′-dithiobis-2-nitrobenzoate (DTNB) in 500 mM Tris, pH 7.5. After 2 minutes, absorbance was read at 412 nm in a Spectramax Plus plate reader (Molecular Devices, Sunnyvale, Calif.).
Method for N[C@@H](CO)C(=O)O: as §1
Method for O=C(O)CNCP(=O)(O)O: as §1

The kcat is the maximal rate divided by the concentration of active sites. What is called kcat/Km is the turnover number divided by the Michaelis constant. In the case of “native GAT polypeptide 401 (glyphosate-N-acetyltransferase), wild type, SEQ ID NO: 6 (Bacillus licheniformis DSM 13 = ATCC 14580)”, the Km was 1.27 ± 0.0144 MM in the series on O=C(O)CNCP(=O)(O)O, 43 MM in the series with N[C@@H](CO)C(=O)O and 6.7 MM in the series on N[C@@H](CC(=O)O)C(=O)O. Also, the kcat with O=C(O)CNCP(=O)(O)O is 0.08917 ± 0.000717 s⁻¹; in the series on N[C@@H](CO)C(=O)O it was 14.2 s⁻¹; in the series on N[C@@H](CC(=O)O)C(=O)O, 0.402 s⁻¹. For the same molecule, the results for the catalytic efficiency (kcat/Km) with O=C(O)CNCP(=O)(O)O, in the series with N[C@@H](CO)C(=O)O and with N[C@@H](CC(=O)O)C(=O)O were 70.2 M⁻¹ s⁻¹, 330 M⁻¹ s⁻¹ and 60 M⁻¹ s⁻¹, respectively.

With “non-native GAT polypeptide 17-15H3 (glyphosate-N-acetyltransferase), SEQ ID NO: 601 (Bacillus licheniformis DSM 13 = ATCC 14580; E119K/E65Q/E67Q/E68K/G37R/I132T/I135V/I15L/K101R/K144R/K58Q/L145I/L26I/L97I/R47G/R92K/T33S/T89S/V114A/Y130F/Y31F)”, the figures for the Km with O=C(O)CNCP(=O)(O)O, with N[C@@H](CO)C(=O)O and with N[C@@H](CC(=O)O)C(=O)O were 0.251 ± 0.0041 MM, 60.1 ± 1.68 MM and 2.95 ± 0.162 MM, respectively. In addition, the kcat in the series with O=C(O)CNCP(=O)(O)O is 19.2 ± 0.46 s⁻¹; with N[C@@H](CO)C(=O)O, 4.03 ± 0.263 s⁻¹; in the series with N[C@@H](CC(=O)O)C(=O)O, 7.25 ± 0.188 s⁻¹. Also, the specificity constant (kcat/Km) was 76200 M⁻¹ s⁻¹ in the series on O=C(O)CNCP(=O)(O)O, 67.3 M⁻¹ s⁻¹ in the series with N[C@@H](CO)C(=O)O and 2470 M⁻¹ s⁻¹ in the series with N[C@@H](CC(=O)O)C(=O)O.

B1: R12G7: further evolved GAT enzyme, SEQ ID NO:929 (protein)
chain: MIEVKPINAEDTYDLRHRVLRPNQPIEACMFDNDLMRGAFHLGGFHGGKLISVASFHQAEHTELQGQKQYQLRGVATLEGYREQKAGSSLVKHAEEILRKRGADMLWCNARTSASGYYRKLGFSEQGEVFDTPPVGPHILMYKRIT
modifications: R12G7
As to B1, the “GAT activity compared with the template polypeptides” value in series [1] is “extremely high GAT activities comparable to those of the template polypeptides”.

B2: 22-15B4: GAT enzyme SEQ ID NO:789; Table 9 prints SEQ ID NO: 946 (protein)
chain: MIEVKPINAEDTYDLRHRVLRPNQPIEACMFDSDLMRSAFHLGGFYGGKLISVASFHQAEHTELQGQKQYQLRGVATLEGYREQKAGSSLVKHAEEILRKRGVDLLWCNARTSASGYYKKLGFSEQGEVFDTPPVGPHILMYKRIT
modifications: D_S00397832_GAT22-15B4
Consider B2, for which, in series [2], the “Half-life” value was 26 h.

B3: 22-18C5: GAT polypeptide, SEQ ID NO: 795 (protein)
chain: MIEVKPINAEDTYDLRHRVLRPNQPIEACMFESDLTRGAFHLGGFYGGKLISVASFHQAEHSELQGQKQYQLRGVATLEGYREQKAGTSLVKHAEEILRKRGVDLLWCNARTSASGYYRKLGFSEQGEVFDTPPVGPHILMYKRIT
modifications: D_S00398097_GAT22-18C5
B3: the “Half-life” value in series [2] came out at 43 h.

B4: 20-8H12: evolved GAT; polypeptide SEQ ID NO:739, gene SEQ ID NO:738 (protein)
chain: MIEVKPINAEDTYELRHRVLRPNQPIEACIFESDLMRGAFHLGGFYGGRLISVASFHQAEHSELQGQKQYQLRGMATLEGYREQKAGSSLVKHAEEILRKRGADLLWCNARTSASGYYKKLGFSEQGEVFDTPPVGPHILMYKRIT
modifications: D_S00341806_GAT20-8H12
Regarding B4, in series [2], the “Half-life” value was found to be 54 h.

B5: R12G8: further evolved GAT enzyme, SEQ ID NO:931 (protein)
chain: MIEVKPINAEDTYDLRHRVLRPNQPIEACMFDNDLMRSAFHLGGFHGGKLISVASFHQAEHTELQGQKQYQLRGVATLEGYREQKAGSSLVKHAEEILRKRGADMLWCNARTSASGYYRKLGFSEQGEVFDTPPVGPHILMYKRIT
modifications: R12G8
In the case of B5, the “GAT activity compared with the template polypeptides” value in series [1] is “extremely high GAT activities comparable to those of the template polypeptides”.

B6: 22-13B12: GAT polypeptide, SEQ ID NO: 781 (protein)
chain: MIEVKPINAEDTYDLRHRVLRPNQPIEACMFESDLMRGAFHLGGFYGGKLISVASFHQAEHSELQGQKQYQLRGMATLEGYREQKAGSSLVKHAEEILRKRGADILWCNARTSASGYYRKLGFSEQGEVFDTPPVGPHILMYKRIT
modifications: D_S00397672_22-13B12
For the molecule B6, the “Half-life” value in series [2] turned out to be 67 h.

B7: 0—5B8: evolved GAT gene, SEQ ID NO:190 (nucleic acid)
DNA: ATGATAGAGGTGAAACCGATTAACGCAGAGGATACCTATGAACTAAGGCATAAAATACTCAGACCAAACCAGCCGATAGAAGCGTGTATGTATGAAAGCGATTTACTTCGTGGTGCATTTCACTTAGGCGGCTTTTACAGGGGCAAACTGATTTCCATAGCTTCATTCCACCAGGCCGAGCACTCAGACCTCCAAGGCCAGAAACAGTACCAGCTCCGAGGTATGGCTACCTTGGAAGGTTATCGTGATCAGAAAGCGGGATCGAGTCTAATTAGACACGCTGAACAAATTCTTCGTAAGAGGGGGGCGGACTTGCTTTGGTGCAATGCGCGGACATCCGCCTCAGGCTACTACAAAAAGTTAGGCTTCAGCGAGCAGGGAGAGATATTTGATACGCCGCCAGTAGGACCTCACATCCTGATGTATAAAAGGCTCACA
modifications: Synthetic nucleic acid sequence; 0_5B8
In the case of B7, in the series on tobacco plants (0.5, 2 or 4× glyphosate (1× = 32 oz/acre of 40% ai), clonally propagated events, average of 5 leaves), the “outcome two weeks after glyphosate spray” value is on record as “survived the spraying procedure without signs of glyphosate damage”. The “outcome after second spray with an 8× dose” value in the series with tobacco plants (8× glyphosate three weeks later) is given as “survived”.
